Measurements published in patent US20110009319A1 (RESEARCH DEVELOPMENT FOUNDATION, published 2011).

T1: activin-A (UniProt P08476 311-426, [125I] label in the crosslinking assays (site not stated))
T1 construct: The ~14 kDa monomer implies the processed mature chain; Unlabelled protein was used in the luciferase assays; also called bA-bA
T1 sequence (looked up): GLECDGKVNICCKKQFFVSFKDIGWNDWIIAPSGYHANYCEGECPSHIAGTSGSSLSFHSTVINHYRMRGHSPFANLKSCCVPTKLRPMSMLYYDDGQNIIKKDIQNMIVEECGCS


Key:
activin-A [1] = target: T1, activin-A; experiment: activin crosslinking assays
Procedure: Cells were transfected with […] DNA per well with ratios of 0.5 mg TbRII/0.5 mg ALK5/3 mg Cripto unless otherwise indicated for [¹²⁵I]-TGF-b1 crosslinking or […] ActRII/1 mg Cripto/1 mg vector for [¹²⁵I]activin-A crosslinking. As necessary, empty vector was used to keep the amount of DNA transfected constant at […]. […] Cells were then rinsed in HDB, incubated in HDB containing 0.5 mM disuccinylsuberate (DSS) for 30 min on ice, rinsed in HDB and then solubilized in lysis buffer (TBS containing 1% NP-40, 0.5% deoxycholate and 2 mM EDTA) for 1 h on ice. Solubilized, crosslinked complexes were incubated for approximately 24 h at 4° C. with […] of either anti-FLAG (M2), anti-His or anti-myc antibodies. Immune complexes were precipitated using protein-G agarose and analyzed using SDS-PAGE and autoradiography.

activin-A [2] = target: T1, activin-A; experiment: not described at this place

Row | Binder | binding result (activin-A [1]) | binding result (activin-A [2])
1 | Cripto DEGF mutant (receptor, C-terminal GPI anchor) FEFGPVAGRDLAIRDNSIWDQKEPAVRDRSFQFVPSVGIQNSKEHCGSILHGTWLPKKCSLCRCWHGQLHCLPQTFLPGCD | no binding | 
2 | Cripto EGF1•2mCFC mutant (N69G, T72A, R88G, E91G, H104G, W107G) (receptor, C-terminal GPI anchor) FEFGPVAGRDLAIRDNSIWDQKEPAVRDRSFQFVPSVGIQNSKSLNKTCCLGGGACILGSFCACPPSFYGGNCGHDVRKEHCGSILGGTGLPKKCSLCRCWHGQLHCLPQTFLPGCD |  | no binding
